Data published in PMC2120063 (The Journal of Cell Biology, 1994).
Values belong to the binder of their own block, whether it stands above or below them.

Legend:
[1] = target: T1, rabbit skeletal muscle actin (rabbit, UniProt P68135 1-377); experiment: pyrene-actin polymerisation kinetics
[2] = target: T1, rabbit skeletal muscle actin; experiment: pyrene-actin polymerisation kinetics; remark: listed apart in the source
[3] = target: T1, rabbit skeletal muscle actin; experiment: co-sedimentation

Kd [1]: 10 to 100 nM
Kd [2]: ~20 nM
Kd [3]: 100 nM
stoichiometry N [3]: 11 actin subunits per tensin
B1: full-length epitope-tagged recombinant chick cardiac muscle tensin (natural protein)
chain: MDFGSVMNQAATPCSPAVNYELPSPGQSITKQVDTPDATRSPRGGQAHRKASRSMSVTAAMESSCELDLVYITERIIAVSYPSTAEEQSFRSNLREVAHMLKSKHGDNYVLFNLSERRHDISKLHPKVLDFGWPDLHTPALEKICSICKAMDTWLNAAAHNVVVLHNKGNRGRLGVVVAAYMHYSNISASADQALDRFAMKRFYEDKVVPVGQPSQKRYIHYFSGLLSGSIKMNNKPLFLHHVIMHGIPNFESKGGCRPFLKIYQAMQPVYTSGIYNVQGDSQTGICITIEPGLLLKGDILLKCYHKKFRSPTRDVIFRVQFHTCAVHDLDIVFGKEDLDEAFRDERFPEYGKVEFVFSYGPEKIQGMEHLENGPSVSVDYNTSDPLIRWDSYENFNIQREDSTEGTWAEPALPGKHLEKEVGHTQGPLDGSLYAKVKKKDSLHGSIGAVNAARLPLSAAPNHVEHTLSVSSDSGNSTASTKTDRTDEPGAPGAPTGHAVLSPEEKRELDRLLVGFGLESAPPMHNHAPGPAPARLPAGPGRHVVPAQVHVNGAGTPLLAERETDILDDELPNQDGHSVGSLGTLSSLDGTTTASEAGFHEAPRVGSLSSLPNGPASYNGAEKMLKEGLYEAEPLSNGAYPYSNQNTLMGHHLRDPLAHLRPSASAQEHLAGYPQRQPASTSPAWLQPPVPQPYLYGYDLPSAHRSQSFPAVGTAKYEANLALPQAPARSTSSREAVQRGLNSWQQQGGSRPPSQLHDGGLESHSPSLSSCSPQPSPLQPMPPHSHSMPEFPRAPSRREIEQSIEALDVLMLDLAPSVHKSQSVPSAATRQDKPAAMLSSLSAQPLSGHYAQPTPQVVQPRSFGTSVGTDPLAKAYSPGPLVPAARSTAEPDYTVHEYRETYTPYSYQPVPEPRSYGSAPASILPLSASYSPAGSQQLLVSSPPSPTAPAQSQLPHKGLESYEDLSRSGEEPLNLEGLVAHRVAGVQSREKSPEESTVPARRRTPSDSHYEKSSPEPGSPRSPTVLSPEVVSTIAANPGGRPKEPHLHSYKEAFEEMESASPSSLTSGGVRSPPGLAKTPLSALGLKPHNPADILLHPVGELEGEAGADSEEEPRSYVESVARTATTGRAGNLPAAQPVGLEVPARNGAFGNSFTVPSPVSTSSPIHSVDGASLRSYPSEGSPHGTVTPPHAVAETAYRSPMVSQTPSAHSSYQTSSPSSFQAGTLGSPYASPDYPDGRAGFQPDPQARQQPQVSVVGVHALPGSPRTLHRTVATNTPPSPGFGRRAANPAVASVPGSPGLGRHTVSPHAPPGSPSLARHQMAAVPPGSPMYGYSSPEERRPTLSRQSSASGYQPPSTPSFPVSPAYYPGTSTPHSSSPDSAAYRQGSPTPQPALPEKRRMSAGERSNSLPNYATVNGKASSPLSSGMSSPSSGSAVAFSHTLPDFSKFSMPDISPETRANVKFVQDTSKYWYKPDISREQAIALLKDREPGAFIIRDSHSFRGAYGLAMKVASPPPTVMQQNKKGDITNELVRHFLIETSPRGVKLKGCPNEPNFGCLSALVYQHSIMPLALPCKLVIPDRDPMEEKKDAASTTNSATDLLKQGAACNVLFINSVEMESLTGPQAISKAVAETLVADPTPTATIVHFKVSAQGITLTDNQRKLFFRRHYPLNTVTFCDLDPQERKWTKTDGSGPAKLFGFVARKQGSTTDNVCHLFAELDPDQPAAAIVNFVSRVMLGSGQKR

stoichiometry N [3]: 2 to 4 actin subunits per tensin fragment
B2: GST-tensin p29(1-263) (domain or fragment)
chain: MDFGSVMNQAATPCSPAVNYELPSPGQSITKQVDTPDATRSPRGGQAHRKASRSMSVTAAMESSCELDLVYITERIIAVSYPSTAEEQSFRSNLREVAHMLKSKHGDNYVLFNLSERRHDISKLHPKVLDFGWPDLHTPALEKICSICKAMDTWLNAAAHNVVVLHNKGNRGRLGVVVAAYMHYSNISASADQALDRFAMKRFYEDKVVPVGQPSQKRYIHYFSGLLSGSIKMNNKPLFLHHVIMHGIPNFESKGGCRPFLKI
